Key:
[1] = Solubility in aqueous buffer by 1H NMR; format: physicochemical; details: for solubility compared to that of PTX alone: qualitative
[2] = literature value, ref not given; cited from earlier work
[3] = Stability in aqueous buffer and organic solvents by NMR; format: physicochemical
[4] = heparinized rat plasma, 400 μM compound, 37 °C, 1D 1H NMR 600 MHz

Which results are given for `CC(=O)O[C@H]1C(=O)[C@@]2(C)[C@H]([C@H](OC(=O)c3ccccc3)[C@]3(O)C[C@H](OC(=O)[C@H](O)[C@@H](NC(=O)c4ccccc4)c4ccccc4)C(C)=C1C3(C)C)[C@]1(OC(C)=O)CO[C@@H]1C[C@@H]2O` [PTX, paclitaxel]?
solubility in aqueous buffer ([1]; assessed from 1H NMR spectra in aqueous buffer): below 10 μM; aqueous solubility [2]: < 10 µg/mL; log P [2]: 3.96

With DYPSMAMYSPSV [DYP-L2-PTX] as the compound, how does the “solubility compared to that of PTX alone” value [1] read?
The value was “increased solubility”.

For YSAYPDSVPMMS [YSA-L1-PTX], which “stability in organic solvents” value ([3]; DMSO or methanol) is on record?
Its value is “very stable”.

And the “time within which degradation of the linker in buffer is observed” value ([3]; aqueous buffer)?
Its value is no more than 10 min.

With YSAYPDSVPMMS [YSA-L2-PTX] as the compound, how does the “solubility compared to that of PTX alone” value [1] read?
Its value is “increased solubility”.

For “ySAYPDSVP(L-Norleucine)(L-Homoserine)S [dYNH-L2-PTX]”, which “solubility compared to that of PTX alone” value [1] is on record?
Its value is “increased solubility”.

What about the “degradation after 8 hours incubation with plasma” value [4] of the same compound?
Its value is “d-Tyr1 does not appear to be degraded”.

From PMC4082471 (ChemMedChem, 2014)
